Measured values: PMC7933334, “The methyltransferase SETD2 couples transcription and splicing by engaging mRNA processing factors through its SHI domain” (Nature Communications, 2021)

Molecular target: T1, GST-His-hnRNP L RRM2 (162–321) (human, UniProt P14866 162-321)
T1 construct: bait of the GST pull-down; source: E. coli Rosetta 2 (DE3) pLysS, purified (glutathione magnetic beads)
T1 sequence (looked up): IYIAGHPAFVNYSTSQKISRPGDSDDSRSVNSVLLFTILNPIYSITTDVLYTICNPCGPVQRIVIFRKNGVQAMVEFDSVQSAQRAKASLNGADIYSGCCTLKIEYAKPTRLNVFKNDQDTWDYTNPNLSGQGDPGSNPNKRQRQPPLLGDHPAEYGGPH
Test: pull-down; GST pull-down with recombinant proteins purified from bacteria; GST-His-hnRNP L segments as baits, FLAG-SETD2 fragments as preys; RNase included in the binding assay; western blot with anti-His and anti-FLAG
Conditions: both partners purified

B1: FLAG-SETD2 SHI (2114–2263) (domain or fragment, human, UniProt Q9BYW2 2114-2263, looked up)
chain: NKLSTEERRKLFEQEVAQREAQKQQQQMQNLGMTSPLPYDSLGYNAPHHPFAGYPPGYPMQAYVDPSNPNAGKVLLPTPSMDPVCSPAPYDHAQPLVGHSTEPLSAPPPVPVVPHVAAPVEVSSSQYVAQSDGVVHQDSSVAVLPVPAPG
notes: The methods say that proteins were eluted with either glutathione or AcTEV protease; source: E. coli Rosetta 2 (DE3) pLysS, purified (glutathione magnetic beads)
B1: binds.
